Our source for the Nf/Cf of TP–Trx–AF594 microinjected into HeLa cells incubated with importazole (40 µM), a selective Imp β inhibitor; 1.62 with DMSO and Kd values is paper PMC8036708.

In general, Kd refers to the free concentration of one partner at which half of the binding sites on the other are occupied at equilibrium, for simple one-to-one binding. Low values mean a tighter complex, high ones a looser complex.

The target of experiment [1] is adenovirus terminal protein-thioredoxin fusion protein (TP–Trx), bacterially expressed (adenovirus (serotype not given)).
The target is the same in experiment [2]. As to the kind of experiment: AlphaScreen or HTRF; 30 nM TP–Trx (or Trx tag alone) on nickel NTA donor beads, serial dilutions of GST-tagged importins or GST control on GST acceptor beads; 0.5% BSA added, dilutions in PBS, room temperature in the dark; one-phase association fit. In general terms: Alpha assays give light when donor and acceptor beads are brought close together.

Consider “importin β1 (Imp β1), GST-tagged (from UniProt P70168 1-876) (natural protein)”, for which the Nf/Cf of TP–Trx–AF594 microinjected into HeLa cells incubated with importazole (40 µM), a selective Imp β inhibitor; 1.62 with DMSO in experiment [1] is 1.04. This substance also gave a Kd in experiment [2] of 21 nM.
